The assay deals with Mycobacterium tuberculosis ClpC2 (full length, wild type) (Mycobacterium tuberculosis). Description: SEC. On the technique in general: In gel filtration, larger molecules generally elute earlier.

The values below come from PMC10030653, “ClpC2 protects mycobacteria against a natural antibiotic targeting ClpC1-dependent protein degradation” (Communications Biology, 2023).

The substance “Mycobacterium tuberculosis ClpC2 (full length, wild type) (natural protein)” displayed a stoichiometry N of 2.

As usually defined, the stoichiometry N is the number of molecules, sites or subunits per partner or assembly.
